# Measured values reported in patent US20090291081A1 (published 2009).
# T1: human IL-1α (human, UniProt P01583 113-271)
# T1 chain: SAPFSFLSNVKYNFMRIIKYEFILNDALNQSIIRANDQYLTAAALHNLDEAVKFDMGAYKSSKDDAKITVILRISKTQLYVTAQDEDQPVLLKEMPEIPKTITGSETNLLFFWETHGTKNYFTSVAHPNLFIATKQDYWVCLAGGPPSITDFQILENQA
# What was measured:
# [1] = target: T1, human IL-1α; assay: yeast surface display titration (FACS); unlabelled IL-1α
# [2] = target: Bio-IL-1a; assay: yeast surface display titration (FACS); biotinylated IL-1α
EC50 [1],EC50 [2],Binder
0.664 nM,,"ABT2-108-538x/ABT1-95-15 scFv on yeast surface (scFv, V domains shown) VH: EVQLLESGGGLVQPGGSLRLSCAASGFTFADEGMMWVRQAPGKGLEWVSRITYSGKNTYYADSVKGRFTISRDNSKNTLYLQMNSLRAEDTAVYYCAKYTGRILGHHLFDYWGQGTLVTVSS VL: DIQMTQSPSSLSASVGDRVTITCRASQPIVRNLRWYQQKPGKAPKLLIYSSSYLEPGVPSRFSGSGSGTDFTLTISSLQPEDFATYHCQQGYRWPVTFGQGTKVEIK"
,0.664 nM,"ABT2-108-538x/ABT1-95-15 scFv (scFv, V domains shown) VH: EVQLLESGGGLVQPGGSLRLSCAASGFTFADEGMMWVRQAPGKGLEWVSRITYSGKNTYYADSVKGRFTISRDNSKNTLYLQMNSLRAEDTAVYYCAKYTGRILGHHLFDYWGQGTLVTVSS VL: DIQMTQSPSSLSASVGDRVTITCRASQPIVRNLRWYQQKPGKAPKLLIYSSSYLEPGVPSRFSGSGSGTDFTLTISSLQPEDFATYHCQQGYRWPVTFGQGTKVEIK"
